Where a chain is given by its changes, count along the chain named. In names and notes the source's numbering stands.
T1: recombinant human IL-23R/Fc chimera (R&D Systems) (human, UniProt Q5VWK5 24-353)
T1 construct: bought; also called human IL-23R/Fc fusion protein; rhIL23RFc
T1 sequence (looked up): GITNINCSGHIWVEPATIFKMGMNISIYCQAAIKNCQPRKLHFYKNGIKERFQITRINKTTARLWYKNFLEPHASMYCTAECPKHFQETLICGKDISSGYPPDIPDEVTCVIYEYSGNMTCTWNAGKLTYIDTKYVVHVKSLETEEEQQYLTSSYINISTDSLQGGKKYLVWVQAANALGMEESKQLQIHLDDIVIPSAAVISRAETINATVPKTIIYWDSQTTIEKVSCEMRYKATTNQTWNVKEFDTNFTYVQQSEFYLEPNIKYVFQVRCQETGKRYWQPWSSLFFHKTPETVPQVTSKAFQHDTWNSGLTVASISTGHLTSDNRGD

B1: 101-51-1A5 ATRIMER (designed binder)
chain: EPPTQKPKKIVNAKKDVVNTKMFEELKSRLDTLAQEVALLKEQQALQTVCLKGTKVHMKCFLAFTQTKTFHEASEDCISRGGTLSTPQTGSENDALYEYLRQSVGNEAEIWLGLNGSALTNTWVDMTGARIAYKNWENGHEPQPRGGFGYFGENCAVLSGAANGKWFDKRCRDQLPYICQFGIV
B2: 105-20-1B3 ATRIMER (designed binder)
chain: B1 chain with N138T, G139E, H140I, E141T, P142A, R145D
notes: not shown: C-terminal tag: Myc/His6 (pANA4) or HA-StrepII (pANA10); A Ser left at the ompA junction may also sit at the N-terminus
B3: 101-51-1A9 ATRIMER (designed binder)
chain: B1 chain with N138P, G139A, H140R, E141Q, R145G
modifications: ATRIMER is a homotrimer; one protomer is given.
notes: not shown: C-terminal purification tag: Myc/His6 (pANA4) or HA-StrepII (pANA10)
B4: 105-61-4G3 ATRIMER (designed binder)
chain: B1 chain with A118L, L119R, N121D, N138T, G139E, H140I, E141T, P142A, R145D, Y150V
notes: as for B3
B5: 105-20-2F10 ATRIMER (designed binder)
chain: B1 chain with L119R, N121D, N138T, G139E, H140I, E141T, P142A, R145D
modifications: Forms a homotrimer (ATRIMER) through the tetranectin coiled coil; one protomer is given.
notes: not shown: C-terminal tag
B6: 105-20-2G12 ATRIMER (designed binder)
chain: B1 chain with A118P, L119R, N138T, G139E, H140I, E141T, P142A, R145D
notes: as for B2
B7: 105-61-4G5 ATRIMER (designed binder)
chain: B1 chain with A118P, N138T, G139E, H140I, E141T, P142A, R145D, Y150V
notes: as for B2
B8: 105-20-2C11 ATRIMER (designed binder)
chain: B1 chain with A118V, L119R, N121D, N138T, G139E, H140I, E141T, P142A, R145D, F148W
B9: 101-54-4B10 ATRIMER (designed binder)
chain: B1 chain with N138R, G139P, H140P, E141L, P142Y, R145G
modifications: ATRIMER is a homotrimer; one protomer is given.
notes: as for B3
B10: 105-20-2G5 ATRIMER (designed binder)
chain: B1 chain with A118R, L119R, N121D, N138T, G139E, H140I, E141T, P142A, R145D, F148W
notes: not shown: C-terminal tag: His/Myc (pANA4) or HA-StrepII (pANA10)
B11: 105-78-2E6 ATRIMER (designed binder)
chain: B1 chain with A118L, L119R, N138T, G139E, H140I, E141T, P142A, R145D, Y150V
notes: as for B3
B12: 105-78-2D1 ATRIMER (designed binder)
chain: B1 chain with A118L, L119R, N121H, N138T, G139E, H140I, E141T, P142A, R145D, Y150V
notes: as for B2
B13: 105-59-3A5 ATRIMER (designed binder)
chain: B1 chain with A118L, N138T, G139E, H140I, E141T, P142A, R145D, Y150V
notes: as for B2
B14: 105-20-2C7 ATRIMER (designed binder)
chain: B1 chain with A118V, L119T, N121D, N138T, G139E, H140I, E141T, P142A, R145D
B15: 105-59-3B5 ATRIMER (designed binder)
chain: B1 chain with A118P, L119I, N121D, N138T, G139E, H140I, E141T, P142A, R145D, Y150V
notes: as for B3
B16: B9B ATRIMER (designed binder)
chain: EPPTQKPKKIVNAKKDVVNTKMFEELKSRLDTLAQEVALLKEQQALQTVCLKGTKVHMKCFLAFTQTKTFHEASEDCISRGGTLSTPQTGSENDALYEYLRQSVGNEAEIWLGLNAPPDLGLWVDMTGARIAYKNWETEITAQPDGGWGVWGENCAVLSGAANGKWFDKRCRDQLPYICQFGIV
modifications: Forms a homotrimer through the tetranectin coiled coil; one protomer is given.
notes: also called 056-41.B9B
B17: C3C ATRIMER (designed binder)
chain: B16 chain with P117N, P118R, D119R, L120R, G121T, L122M, W148M
modifications: Forms a homotrimer through the tetranectin coiled coil; one protomer is given.
notes: also called 001-89.C3C
B18: A4A ATRIMER (designed binder)
chain: B16 chain with A116W, P117T, P118L, D119A, L120K, G121N, W148L, G149F, V150G, W151R
modifications: Forms a homotrimer through the tetranectin coiled coil; one protomer is given.
notes: also called 001-87.A4A

target: T1, recombinant human IL-23R/Fc chimera …; test: competition ELISA against IL-23
Procedure: Assays were performed generally as follows. Individual wells in Immulon HB2 plates were incubated overnight at 4° C. with 100 μL PBS containing 100 ng of an anti-human IgG Fc (R&D MAB 110 clone 97924). Plates were washed five times with PBS/0.05% Tween 20, and wells were incubated for 1.5 h at RT with 100 μL each of PBS containing 50 ng of recombinant human IL-23R/Fc. […] Competitor was included at a final concentration of 1 μg/mL. After incubation, plates were washed as described and wells were incubated for 40 min at RT with 100 μL each of PBS containing a 1:5000 dilution of streptavidin-HRP conjugate (Pierce catalog no. 21130). After washing, wells were incubated with 100 μL each of TMB (BioFX Lab catalog no. TMBH-1000-0) for up to 30 min at RT. Reactions were stopped with an equal volume of 0.2 M sulfuric acid.

Row | Ratio IC50 to 056-53.H4E IC50 | Binder
1 | 1 ratio | B1
2 | 1.2 ratio | B2
3 | 2.2 ratio | B3
4 | 0.8 ratio | B4
5 | 4.2 ratio | B5
6 | 1 ratio | B6
7 | 1 ratio | B7
8 | 4.8 ratio | B8
9 | 1.4 ratio | B9
10 | 5.3 ratio | B10
11 | 1 ratio | B11
12 | 1.3 ratio | B12
13 | 1.2 ratio | B13
14 | 3.5 ratio | B14
15 | 0.8 ratio | B15

target: T1, recombinant human IL-23R/Fc chimera …; test: SPR (Biacore), captured IL-23R/Fc, ATRIMER
Procedure: A Biacore 3000 biosensor (GE Healthcare) was used to evaluate the interaction of human IL-23R and receptor binders. Immobilization of an anti-human IgG Fc antibody (GE Heathcare) to the CM5 chip (Biacore) was performed using standard amine coupling chemistry, and this modified surface was used to capture a recombinant human IL-23R/Fc fusion protein (R&D Systems). A low-density receptor surface, less than 200 RU, was used for all of the analyses. ATRIMER™ polypeptide complex dilutions (1-500 nM) were injected over the IL-23R surface at 30 μl/min and kinetic constants were derived from the sensorgram data using the Biaevaluation software (version 3.1, GE Healthcare). Data collection was 3 minutes for the association and 5 minutes for dissociation. The anti-human IgG surface was regenerated with a 30 s pulse of 3M magnesium chloride. All sensorgrams were double-referenced against an activated and blocked flow-cell as well as buffer injections.

Row | Ka | Kd | koff | kon | Binder
16 | 1.71e+09 M⁻¹ | 0.584 nM | 0.000289 s⁻¹ | 495000 M⁻¹ s⁻¹ | B1
17 | 1.05e+09 M⁻¹ | 0.955 nM | 0.000329 s⁻¹ | 345000 M⁻¹ s⁻¹ | B3
18 | 1.94e+08 M⁻¹ | 5.15 nM | 0.000478 s⁻¹ | 92800 M⁻¹ s⁻¹ | B16
19 | 1.11e+09 M⁻¹ | 0.897 nM | 0.000429 s⁻¹ | 479000 M⁻¹ s⁻¹ | B9
20 | 1.2e+08 M⁻¹ | 8.34 nM | 0.000483 s⁻¹ | 57900 M⁻¹ s⁻¹ | B17
21 | 1.24e+08 M⁻¹ | 8.08 nM | 0.000409 s⁻¹ | 50600 M⁻¹ s⁻¹ | B18

Source: patent US20110086770A1 (ANAPHORE, published 2011)
